For 2 molecules, stoichiometry N results are on record in PMC11646347.

The target in one assay is streptavidin (UniProt P22629). The assay is described as follows: native MS; native CZE online with ESI and a Q-Exactive UHMR Orbitrap; mixture of standard proteins and protein complexes; background electrolyte 25 mM ammonium acetate pH~7.0, sheath buffer 10 mM ammonium acetate pH~7.0; original sample (about 15 ng consumed) and a 50-fold dilution (0.1 ng CRP loaded).
Assay [1] deals with T1, C-reactive protein, P02741.
T1 chain: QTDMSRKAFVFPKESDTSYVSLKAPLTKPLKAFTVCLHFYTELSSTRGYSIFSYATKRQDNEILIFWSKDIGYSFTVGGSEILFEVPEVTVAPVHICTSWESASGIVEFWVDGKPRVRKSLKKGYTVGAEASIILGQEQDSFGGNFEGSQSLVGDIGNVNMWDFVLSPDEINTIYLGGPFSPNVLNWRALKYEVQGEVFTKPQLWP
The description is as above. The conditions noted are these: remark: other sources report otherwise.

Consider “streptavidin (from UniProt P22629 25-183) (natural protein)”, for which the stoichiometry N with streptavidin turned out to be 4.

B1: C-reactive protein, P02741 19-224 (natural protein)
chain: T1 chain
B1: the stoichiometry N in assay [1] is 5.

The stoichiometry N is the number of molecules, sites or subunits per partner or assembly.
